Molecular target: complement C5 (full length) (Homo sapiens) (UniProt P01031)
Test: filter
Conditions: dRmY: A,G deoxy; C,U 2'-OMe; dot blot, DPBS

Sequence of complement C5 (full length) (Homo sapiens) (P01031 whole entry): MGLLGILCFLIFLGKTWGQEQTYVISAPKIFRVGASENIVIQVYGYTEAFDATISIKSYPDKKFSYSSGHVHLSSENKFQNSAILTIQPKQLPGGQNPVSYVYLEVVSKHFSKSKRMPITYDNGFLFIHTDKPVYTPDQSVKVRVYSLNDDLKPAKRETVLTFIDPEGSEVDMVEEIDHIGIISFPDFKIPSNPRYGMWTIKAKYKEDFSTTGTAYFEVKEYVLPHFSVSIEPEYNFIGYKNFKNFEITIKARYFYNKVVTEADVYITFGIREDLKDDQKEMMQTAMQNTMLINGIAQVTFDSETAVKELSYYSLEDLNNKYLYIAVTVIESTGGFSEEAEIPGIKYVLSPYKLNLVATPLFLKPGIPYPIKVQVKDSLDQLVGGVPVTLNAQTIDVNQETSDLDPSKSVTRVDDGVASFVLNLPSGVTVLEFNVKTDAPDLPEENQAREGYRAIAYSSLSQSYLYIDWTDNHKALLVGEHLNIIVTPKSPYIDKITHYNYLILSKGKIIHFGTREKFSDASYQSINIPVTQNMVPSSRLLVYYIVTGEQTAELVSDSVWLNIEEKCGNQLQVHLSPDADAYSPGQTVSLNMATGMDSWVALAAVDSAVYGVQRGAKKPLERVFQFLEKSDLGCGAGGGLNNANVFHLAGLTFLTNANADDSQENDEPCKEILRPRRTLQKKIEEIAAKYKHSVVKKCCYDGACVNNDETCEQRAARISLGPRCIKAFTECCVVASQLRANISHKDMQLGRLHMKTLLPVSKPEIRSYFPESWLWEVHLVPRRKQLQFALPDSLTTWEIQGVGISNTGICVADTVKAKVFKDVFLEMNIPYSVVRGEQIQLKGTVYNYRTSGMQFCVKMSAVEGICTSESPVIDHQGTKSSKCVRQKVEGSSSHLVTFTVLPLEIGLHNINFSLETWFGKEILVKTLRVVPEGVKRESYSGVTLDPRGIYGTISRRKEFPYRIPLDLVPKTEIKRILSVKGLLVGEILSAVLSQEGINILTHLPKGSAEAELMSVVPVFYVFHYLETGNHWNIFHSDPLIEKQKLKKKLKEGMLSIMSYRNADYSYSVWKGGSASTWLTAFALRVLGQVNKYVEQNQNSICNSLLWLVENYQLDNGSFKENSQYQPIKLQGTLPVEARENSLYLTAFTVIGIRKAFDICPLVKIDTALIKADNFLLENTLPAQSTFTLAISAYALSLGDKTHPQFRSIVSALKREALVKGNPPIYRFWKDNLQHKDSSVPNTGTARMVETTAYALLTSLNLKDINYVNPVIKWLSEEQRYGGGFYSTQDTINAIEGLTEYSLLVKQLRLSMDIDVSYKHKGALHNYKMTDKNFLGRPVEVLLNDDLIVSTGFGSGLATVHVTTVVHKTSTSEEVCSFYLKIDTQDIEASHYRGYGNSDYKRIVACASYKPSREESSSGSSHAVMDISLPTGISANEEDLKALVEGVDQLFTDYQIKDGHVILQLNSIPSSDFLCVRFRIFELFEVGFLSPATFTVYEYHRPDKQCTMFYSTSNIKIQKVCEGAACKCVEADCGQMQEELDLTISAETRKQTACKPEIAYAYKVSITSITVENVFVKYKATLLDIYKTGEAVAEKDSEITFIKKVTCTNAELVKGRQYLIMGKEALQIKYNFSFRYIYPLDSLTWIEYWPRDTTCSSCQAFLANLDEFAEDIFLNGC

“GGGAGAGGAGAGAACGUUCUACCUUGGUUUGGCNCAGGCAUANAUACGCACGGGUCGAUCGGUUACGACUAGCAU [doped clone SEQ 96]” was tested. Which Kd did it give?
Its Kd is 84 nM.

Source: patent publication US20090269356
